US20250250357A1 (NANJING ZAIMING PHARMACEUTICAL, published 2025)

T1: human MSLN-R1-his protein (human, UniProt Q13421 296-390)
T1 construct: also called hMSLN-R1-his; human MSLN-R1 protein; not shown: His tag
T1 chain: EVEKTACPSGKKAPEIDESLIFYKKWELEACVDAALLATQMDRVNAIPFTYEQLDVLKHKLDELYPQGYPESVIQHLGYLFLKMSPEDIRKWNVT

B1: S009-F1.56.1 human-murine chimeric antibody (antibody, human IgG1, kappa, V domains shown)
VH: EVQLQQSGAEVVKPGASVKLSCTASGFNIRHTYMHWVKQRPEQGLEWIGRIDPANGNTEYDPKFQGKATITADTSSNTAYLQLSSLTSEDTAVYYCARDGWYIDVWGAGTTVTVSS
VL: DIVMSQSPSSLAVSVGEKVTMSCKSSQSLLYSNNQKNYLAWYQQKPGQSPKLLIYWASTRESGVPDRFTGSGSGTDFTLTISSVKAEDLAVYYCQRYYSYPWTFGGGTKLEIKR
notes: Chimeric IgG1/kappa
B2: S009-F1.35.24 human-murine chimeric antibody (antibody, human IgG1, kappa, V domains shown)
VH: EVQLQQSEPELVKPGASVRISCKASGYSFTDYYMHWVKQSPENRLEWIGEINPSTGGTSYNPKFKDKATLTVDKSSSTAYMQLKSLTSEESAVYYCTRYHYYGSSSYVMDYWGQGTSVTVSS
VL: QIVLTQSPAILSASPGERVTMTCSASSSVYHMHWFQQKSGTSPKRWVYDTSKLASGVPARFSGSGSGTSYSLTISSMEAEDAATYYCQHWRTNPLTFGAGTKLELKR
notes: Chimeric IgG1/kappa
B3: S009-F1.2.12 human-murine chimeric antibody (antibody, human IgG1, kappa, V domains shown)
VH: QVQLKQTGPGLVQPSQSLSITCTVSGFSLTNYAVHWVRQSPGKGLEWLGVIWSGGATDYNTVFISRLSISKDNSKSQVFFKVNSLQVDDTAIYYCARTGSGYAMDYWGQGTSVTVSS
VL: DIVLTQSPATLSVTPGDRVSLSCRTSHNVNTYLHWYQQKSHESPRLLIKYASQSISEIPSRFSGSGSGTNFTLSINSVETEDFGMYFCHQTNRWPLTFGAGTKLELKR
notes: Chimeric IgG1/kappa
B4: S009-F1.57.1 human-murine chimeric antibody (antibody, human IgG1, kappa, V domains shown)
VH: EAQLQQSGAVFVKPGASVKLSCTASGFSSKDIFLHWVKQRPEQGLEWIGRIDPASDNTIYDPKFQDRATITSDRSSNTAYLQFSSLTSEDTAVYFCLYFDFWGQGTTLTVSS
VL: DIVMTQATPSISVTPGESVSISCRSSESLLHSNGNTYLYWFLQRPGQSPQLLIYRMSNLASGVPDRFSVSGSGTAFTLRISRVEAEDVGVYYCMQHLEYPLTFGAGTKLELKR
notes: Chimeric IgG1/kappa
B5: S009-F1.62.9 human-murine chimeric antibody (antibody, human IgG1, kappa, V domains shown)
VH: EVQLQQSGADLVKPGASVKLSCTVFGLNFKDTFMHWVRQRPEQGLEWIGRIDPANDNSIYGPKFQDKATITADTSSNTAYLHLSSLTSEDTAVYYCLYFDNWGHGTTLTVSS
VL: DIVMTQAASSEPVTPGESVSISCRSDKSLLHSNGHNYLYWFLQRPGQSPHLLIYRMSNLASGVPDRFSGSGSGTAFTLRISRVEAEDVGVYYCMQHLEYPLTFGAGTKLELKR
notes: Chimeric IgG1/kappa
B6: S009-F1.7.14 human-murine chimeric antibody (antibody, human IgG1, kappa)
heavy: not shown
light: QIVLTQSPAIMSASPGEKVTISCSASSSVSYMYWYQQKPGSSPKPWISRTSNLASGVPARFSGSGSGTSYSLTISSMEAEDAATYYCQQYHSYPPTLGAGTKLELKRTVAAPSVFIFPPSDEQLKSGTASVVCLLNNFYPREAKVQWKVDNALQSGNSQESVTEQDSKDSTYSLSSTLTLSKADYEKHKVYACEVTHQGLSSPVTKSFNRGEC
notes: Chimeric IgG1/kappa
B7: S009-F1.59.1 human-murine chimeric antibody (antibody, human IgG1, kappa, V domains shown)
VH: EVKLEGSGGGLVQPGGSMMLSCVATGFTFSSYWMNWVRQSPDRGLEWVAEIRLKSNGFAAFYAESVKGRFTISRDDSKSSVYLQMNNLRTEDTGIYYCTYFVHWGQGILVTVSE
VL: DIVLTQSPTSLAVSLGQRATISCRTSESVEYFGTILIQWYQQKPGQPPKLLIFGASNVESGVPARFSGSGSGTDFSLNIHPVEEEDIAMYFCQQNRKVPYTFGGGTTLELKR
notes: Chimeric IgG1/kappa
B8: S009-F1.25.10 human-murine chimeric antibody (antibody, human IgG1, kappa, V domains shown)
VH: EVQLQQSGPELVKPGASLKISCKASGYSFTDYTMNWVKQSHGKNLEWIGLFNPYNGGISYNQKFKGKATLTVDKSSNTAYMELLSLTSDDSAVYFCARDGRGGFYAMDYWGQGTSVTVSS
VL: DIQMTQTTSSLSASLGDRVTISCRASQDISIYLNWYQQKPDGPVKLLIYYTSRLHSGVPSRFSGSGSGTDFSLTISNLEQEDIATYFCQQGYTLPPWTFGGGTKLEIKR
notes: Chimeric IgG1/kappa

Assays:
[1] = molecular target: T2, human MSLN-FL-his protein (human, UniProt Q13421 296-580); test: ELISA, coated antigen; antibody 0.0001 nM
T2 construct: also called hMSLN-FL-his; human MSLN full-length protein; not shown: His tag

[2] = molecular target: T1, human MSLN-R1-his protein; test: ELISA, coated antigen; antibody 100 nM
Description: (§1) The plate was sealed with a plastic film and incubated at 4° C. overnight. The next day, the plate was washed twice with PBST, and a blocking buffer [PBS+2% (w/w) BSA] was added for blocking at room temperature for 2 h. The blocking buffer was discarded, and a chimeric antibody or negative control antibody serially diluted from 100 nM was added at 50 μL/well. After incubation at 37° C. for 2 h, the plate was washed 3 times with PBST. […] After incubation at 37° C. for 2 h, the plate was washed 5 times with PBST. A TMB substrate was added at 50 μL/well for incubation at room temperature for 5-10 min, and then a stop solution (1.0 N HCl) was added at 50 μL/well.

[3] = molecular target: T1, human MSLN-R1-his protein; test: ELISA, coated antigen; antibody 0.1 nM
Description: as §1

[4] = molecular target: T2, human MSLN-FL-his protein; test: ELISA, coated antigen; antibody 0.1 nM
Description: as §1

[5] = molecular target: T2, human MSLN-FL-his protein; test: ELISA, coated antigen; no antibody (blank, column 'none')
Description: as §1

[6] = molecular target: T2, human MSLN-FL-his protein; test: ELISA, coated antigen; antibody 0.001 nM
Description: as §1

[7] = molecular target: T1, human MSLN-R1-his protein; test: ELISA, coated antigen; antibody 0.01 nM
Description: as §1

[8] = molecular target: T2, human MSLN-FL-his protein; test: ELISA, coated antigen; antibody 0.01 nM
Description: as §1

[9] = molecular target: T2, human MSLN-FL-his protein; test: ELISA, coated antigen; antibody 100 nM
Description: as §1

[10] = molecular target: T1, human MSLN-R1-his protein; test: ELISA, coated antigen; antibody 10 nM
Description: as §1

[11] = molecular target: T1, human MSLN-R1-his protein; test: ELISA, coated antigen; antibody 1 nM
Description: as §1

[12] = molecular target: T1, human MSLN-R1-his protein; test: ELISA, coated antigen; no antibody (blank, column 'none')
Description: as §1

[13] = molecular target: T2, human MSLN-FL-his protein; test: ELISA, coated antigen; antibody 10 nM
Description: as §1

[14] = molecular target: T1, human MSLN-R1-his protein; test: ELISA, coated antigen; antibody 0.0001 nM
Description: as §1

[15] = molecular target: T2, human MSLN-FL-his protein; test: ELISA, coated antigen; antibody 1 nM
Description: as §1

[16] = molecular target: T1, human MSLN-R1-his protein; test: ELISA, coated antigen; antibody 0.001 nM
Description: as §1

Binder | OD450 [1] | OD450 [2] | OD450 [3] | OD450 [4] | OD450 [5] | OD450 [6] | OD450 [7] | OD450 [8] | OD450 [9] | OD450 [10] | OD450 [11] | OD450 [12] | OD450 [13] | OD450 [14] | OD450 [15] | OD450 [16]
B1 | 0.05 | 0.12 | 0.04 | 1.83 | 0.05 | 0.11 | 0.03 | 0.55 | 2.74 | 0.06 | 0.05 | 0.05 | 2.44 | 0.04 | 2.3 | 0.05
B2 | 0.06 | 0.06 | 0.04 | 1.62 | 0.06 | 0.09 | 0.04 | 0.41 | 2.48 | 0.04 | 0.04 | 0.04 | 2.27 | 0.04 | 2.22 | 0.04
B3 | 0.06 | 0.05 | 0.05 | 1.75 | 0.06 | 0.11 | 0.04 | 0.49 | 2.74 | 0.05 | 0.04 | 0.04 | 2.31 | 0.04 | 2.27 | 0.05
B4 | 0.05 | 0.07 | 0.03 | 0.82 | 0.05 | 0.06 | 0.05 | 0.15 | 2.51 | 0.04 | 0.03 | 0.05 | 2.42 | 0.04 | 2.03 | 0.04
B5 | 0.06 | 0.06 | 0.04 | 1.79 | 0.05 | 0.11 | 0.05 | 0.48 | 2.61 | 0.04 | 0.04 | 0.05 | 2.59 | 0.04 | 2.35 | 0.04
B6 | 0.06 | 0.27 | 0.05 | 0.3 | 0.06 | 0.06 | 0.04 | 0.08 | 2.59 | 0.07 | 0.05 | 0.05 | 2.05 | 0.05 | 1.43 | 0.04
B7 | 0.06 | 0.06 | 0.03 | 1.76 | 0.05 | 0.1 | 0.05 | 0.47 | 2.65 | 0.04 | 0.03 | 0.05 | 2.38 | 0.03 | 2.31 | 0.04
B8 | 0.06 | 0.05 | 0.03 | 1.67 | 0.06 | 0.1 | 0.04 | 0.43 | 2.57 | 0.04 | 0.03 | 0.05 | 2.44 | 0.04 | 2.3 | 0.05
